{
  "source": "patent US20250388664A1",
  "key": {"[1]": {"molecular_target": "Aβ1-40 monomer (UniProt P05067)", "sequence (P05067 672-711)": "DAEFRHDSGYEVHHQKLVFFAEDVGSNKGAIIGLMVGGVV", "assay": "inhibition ELISA: antibody at a fixed concentration pre-incubated with titrated Aβ1-40 monomer in solution, then on an AβpE3-40 coat; the x axis is the Aβ1-40 concentration"}, "[2]": {"molecular_target": "AβpE11-40 monomer (UniProt P05067)", "sequence (P05067 682-711)": "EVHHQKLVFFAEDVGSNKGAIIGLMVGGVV", "assay": "inhibition ELISA: antibody at a fixed concentration pre-incubated with titrated AβpE11-40 monomer in solution, then on an AβpE3-40 coat; the x axis is the AβpE11-40 concentration"}},
  "data": [
    {"substance": "4G8 (antibody)", "values": [
      {"measurement": "IC50 (read off the curve)", "setting": "[1]", "value": 20, "unit": "nM"},
      {"measurement": "IC50 (read off the curve)", "setting": "[2]", "value": 20, "unit": "nM"}
    ]}
  ]
}
